Assay results taken from article PMC4848949, “Bacterial Expression and Kinetic Analysis of Carboxylesterase 001D from Helicoverpa armigera” (International Journal of Molecular Sciences, 2016).

B1: Trx/6×His/S-tag/001D (pET32a-001D) (Helicoverpa armigera) (protein)
chain: DDEWREVRTAQGPVRGRKHPTADMYAFYNIPYATAPTGEDKFKAPLPGPVWLEPFDAVDERVVCPQAKLPMDIMKNVVEKENCLIANVFVPNTEEKNLSVVVYVHGGAFIIGSGNMIQATHLMKTNDFIMVSFNYRLGIHGFLCLGTEDAPGNAGMKDQVALLRWVQKNIASFGGNPDDVTIVGSSAGSASVDLLMLSKSAEGLFHRVIPESGGNLAAFTVQRDPVEIAKTHAKKLNFNNVDDIYALEEFYKTVPMELLTSDHFFDRTDATFVFGPCVERDTGDGAFLTESPLSILKSGNYRKLPLLYGFAEMEGLMRINVFELWKHKMNEKFSDFLPADLKFDSEEEREEVANKIKRFYFGDKPVGDENVLKYVDYFSDVYFAYSMLWAVKLHAEAGNNQVYLYEYSFVDEDTPLVPHTNVRGADHCTQTMAVYDMKNITHEDESLATPELQKMKKVVREIWHNFIKTGVPVPEGSWLPAWPAAGADRAPHMSLGERLELRGALLPERTRFWDDIYQRYYRDAVPPPTPPPRPRSEL
notes: mature enzyme, signal peptide (residues 1-16) removed; N-terminal Trx/6×His/S-tag kept; E. coli BL21(DE3), Ni-NTA; about 79 kDa; full precursor 554 residues
B2: 6×His/S-tag/001D (pET30a-001D) (Helicoverpa armigera) (protein)
chain: DDEWREVRTAQGPVRGRKHPTADMYAFYNIPYATAPTGEDKFKAPLPGPVWLEPFDAVDERVVCPQAKLPMDIMKNVVEKENCLIANVFVPNTEEKNLSVVVYVHGGAFIIGSGNMIQATHLMKTNDFIMVSFNYRLGIHGFLCLGTEDAPGNAGMKDQVALLRWVQKNIASFGGNPDDVTIVGSSAGSASVDLLMLSKSAEGLFHRVIPESGGNLAAFTVQRDPVEIAKTHAKKLNFNNVDDIYALEEFYKTVPMELLTSDHFFDRTDATFVFGPCVERDTGDGAFLTESPLSILKSGNYRKLPLLYGFAEMEGLMRINVFELWKHKMNEKFSDFLPADLKFDSEEEREEVANKIKRFYFGDKPVGDENVLKYVDYFSDVYFAYSMLWAVKLHAEAGNNQVYLYEYSFVDEDTPLVPHTNVRGADHCTQTMAVYDMKNITHEDESLATPELQKMKKVVREIWHNFIKTGVPVPEGSWLPAWPAAGADRAPHMSLGERLELRGALLPERTRFWDDIYQRYYRDAVPPPTPPPRPRSEL
notes: mature enzyme, signal peptide (residues 1-16) removed; N-terminal 6×His/S-tag kept; E. coli BL21(DE3), Ni-NTA; about 67 kDa
B3: 6×His/001D (pE1-001D) (Helicoverpa armigera) (protein)
chain: DDEWREVRTAQGPVRGRKHPTADMYAFYNIPYATAPTGEDKFKAPLPGPVWLEPFDAVDERVVCPQAKLPMDIMKNVVEKENCLIANVFVPNTEEKNLSVVVYVHGGAFIIGSGNMIQATHLMKTNDFIMVSFNYRLGIHGFLCLGTEDAPGNAGMKDQVALLRWVQKNIASFGGNPDDVTIVGSSAGSASVDLLMLSKSAEGLFHRVIPESGGNLAAFTVQRDPVEIAKTHAKKLNFNNVDDIYALEEFYKTVPMELLTSDHFFDRTDATFVFGPCVERDTGDGAFLTESPLSILKSGNYRKLPLLYGFAEMEGLMRINVFELWKHKMNEKFSDFLPADLKFDSEEEREEVANKIKRFYFGDKPVGDENVLKYVDYFSDVYFAYSMLWAVKLHAEAGNNQVYLYEYSFVDEDTPLVPHTNVRGADHCTQTMAVYDMKNITHEDESLATPELQKMKKVVREIWHNFIKTGVPVPEGSWLPAWPAAGADRAPHMSLGERLELRGALLPERTRFWDDIYQRYYRDAVPPPTPPPRPRSEL
notes: mature enzyme, signal peptide (residues 1-16) removed; N-terminal 6×His tag kept; E. coli BL21(DE3), Ni-NTA; about 63 kDa

The proteins below were run on CC(=O)Oc1cccc2ccccc12 (assay: purified protein). Details: 0.1 M sodium phosphate pH 7.0, 30 °C.
Type: biochemical, Helicoverpa armigera

Which results are given for B1?
Km: 7.61(0.63) µM; kcat: 2.29(0.08) s^-1

B2 was tested. Which Km did it give?
The Km was 12.51(2.14) µM.

And the kcat?
Its kcat is 0.60(0.06) s^-1.

What does the source list for B3?
Km: 19.72(6.69) µM; kcat: 0.35(0.05) s^-1
